# Source: the nanobody polyreactivity screen of Harvey et al. (2022)
# Experiment: yeast display, Sf9 membrane polyspecificity reagent, FACS + sequencing; frameworks hold sequencing errors
# Method in brief: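 A nanobody's polyreactivity label depends on the gate it was sorted from. Yeast display cells were stained with 10% biotinylated, detergent-solubilized Sf9 membrane reagent for 1 hour at 4 °C, enriched on streptavidin microbeads and sorted by FACS. The low and high (top ~1%) gates were set on anti-HA fluorescence for expression and streptavidin fluorescence for reagent binding.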
row,Sequence,polyreactivity (PSR sort gate)
1,QVQLVESGGGLVQAGGSLRLSCAASGIIFRVYAMGWYRQAPGKERELFATITWSGGSTFYADSLKGRFTISRDNAKNTVYLQLNSLKPEDTAVYYCAKRGYVRSGLGRPYADDYWGQCTQVTVSS,low polyreactivity
2,QVQLVESGGGLVQAGGSLRLSCAASGIIFRWYTMGWYRQAPGKEREVVAAITGRGGSTYYADSVKGRFTISRDNAKNTVYLQMNSLKPEDSAVYYCAAQYSYPTPYRTYEYDYWGQGTQVTVSS,high polyreactivity
3,QVQLVESGGGLVQAGGSLRLSCAASGIIFRWYVMGWYRQSPGKERELVAAITNGGRTYYADSVKGRFTISRDNAKNTVYLQMNSLKPEDTEVYYCAAYFRRKMDYWGQGTQVTVSS,high polyreactivity
4,QVQLVESGGGLVQAGGSLRLSCAASGIIFRYYALGWYRKAPRKERELVAAINWRGGRTYYADSVKGRFTISRDNAKNTVYLQMNSLKPEDTAVYYCAAYIYYPYRNDYWGQGTQVTVSS,high polyreactivity
5,QVQLVESGGGLVQAGGSLRLSCAASGIIFRYYAMGWYRPAPGKERELVAAISSGGSTNYADSVKGRFTISRDNAKNTVYLQMNSLKPEDTAVYYCAADYTYNGLEYDYWGQGTQVTVSS,high polyreactivity
6,QVQLVESGGGLVQAGGSLRLSCAASGIIFRYYAMGWYRQAPGKERELVAAISGTGSTKYADSVKGRFTISRDNAKNTVYLQMNSLKPEDTAVYYCNPRKRYARYGGSGYDYWGQGTQVTVSS,high polyreactivity
7,QVQLVESGGGLVQAGGSLRLSCAASGIIFRYYAMGWYRQAPGKERELVAAISWSTDSTYYADSVKGRFTISRDNAKNTVYLPMNSLKPEDTAVYYCNARPSYYRISPYDYWGQGTQVTVSS,high polyreactivity
8,QVQLVESGGGLVQAGGSLRLSCAASGIIFRYYAMGWYRQAPGKERELVAVITGRGGGTYYADSVKGRFTISRDNAKNTVYLQMNSLKPEDTAVYYCAKDFTGHYPKGFDYWGQGTQVTVSS,low polyreactivity
9,QVQLVESGGGLVQAGGSLRLSCAASGIIFRYYVMGWYRQAPGKERELVADITSGGSTYYADSVKGRFTISRDNEKNTVYLQMNSLKPEDTAVYYCAADYQYDWFYYWGQGTQVTVSS,high polyreactivity
10,QVQLVESGGGLVQAGGSLRLSCAASGIIFSAYAMGCYRQAPGKESELVAAISSTGGSTYYADSVKGRFTISRDNAKNTVYLQMNSLKPEDTADYYCATAFTPSKLSRMGYWGQGTQVTVSS,high polyreactivity
11,QVQLVESGGGLVQAGGSLRLSCAASGIIFSFYAMGWYRQAPWKERELVAAISSGGNTNYADSVNGRFTISRDNAKNTVYLQMNSLKPEDTAVYYCAAGYYIWSTYDYWGQGTQVTVSS,low polyreactivity
12,QVQLVESGGGLVQAGGSLRLSCAASGIIFSGYAMGWYRQAPGKERELVASIRSGSNTYYADSVKGRFRISRDNAKNTVYLQMNSLKPEDTAVYYCAARVVPATFRFIRYPHPYYYWGQGTQVTVSS,low polyreactivity
13,QVQLVESGGGLVQAGGSLRLSCAASGIIFSHNVMGWYRQAPGKERELVAAITYSGGSTYYADSVKGRFTISRDNAKNTVYLQMNSMKPEDTAVYYCNAVTYSSPYRFDYWGQGTQVTVSS,low polyreactivity
14,QVQLVESGGGLVQAGGSLRLSCAASGIIFSIYAMGWSRQAPGKERELVAAISGRGGRTYYADSVKGRFTMSRDNAKNTVYLQMNSLKPEDTAVYFCAAGAHAYAHYSWFYFRMHYWGQGTQVTVSS,low polyreactivity
15,QVQLVESGGGLVQAGGSLRLSCAASGIIFSKNAMGWYRQAPGKERELVATINRSGGSTYADSVKGRFTISRDNAKNTVYLQMNSLKPEDTAVYYCAKRASPFWRGYDSWGQGTQVTVSS,low polyreactivity
16,QVQLVESGGGLVQAGGSLRLSCAASGIIFSPYAMGWYRQAPGKERELVAAITNNGGGTYYADSVKGRFTISRDNAKNTVYLQMNSLKPEDTAVYYCAAEGFLEYPYYIWYDYWGQGTQVTVSS,high polyreactivity
17,QVQLVESGGGLVQAGGSLRLSCAASGIIFSSNAMGWYRQAPGKERELVAAISRSGGSTYYADSVKARFTISRDNAKKTVYLQMNSLKPEDTAVYDCAAVYRRGHEYDYWRQGTQVTVSS,high polyreactivity
18,QVQLVESGGGLVQAGGSLRLSCAASGIIFSTYAMGWYRHAPWKERELVAAITRGDSTNYADSVKGRFTISRDNAKNTVYLQMNSLKPEDTAVYYCAVDKRYGRVVGRDYDYWGQGTQVTVSS,high polyreactivity
19,QVQLVESGGGLVQAGGSLRLSCAASGIIFSVYAMGWYRQAPGTERELVAAISGSGGSTYYADSVKGRFTISRDNAKNTVYLQMNSLKPEDTAVYYCAARKKWSIRSDYWGQGTQVTVSS,high polyreactivity
20,QVQLVESGGGLVQAGGSLRLSCAASGIIFSYNVMGWYRQAPGTERELVAGISRSGGSTYYADSVKGRFTISRDNAKNTVYLQMNSLKPEDTAVYYCNRVSYGPYYSYWSDFGYWGQGTQVTVSS,high polyreactivity
21,QVQLVESGGGLVQAGGSLRLSCAASGIIFSYYAMGWYIQAPGKERELVAAISSSGVSTNYADSVKGRFTISRDNAKNTVYLQMNSLKPEDTAVYYCNARGYYWYRPYVNSNGGYWGQGTQVTVSS,high polyreactivity

row,Sequence,polyreactivity (PSR sort gate)
1,QVQLVESGGGLVQAGGSLRLSCAASGIIFSYYPMGRYRQAPGIERELVAAISRSGGNTYYADSVKGRFTISRDNAKNTVYVQMNSLKPEDTAVYYCAVGWYDDYYYGYDYWGQGTQVTVSS,high polyreactivity
2,QVQLVESGGGLVQAGGSLRLSCAASGIIFTANVMGWYRHAPGKERELDAVISLSGGITFYADSVKGRFTISRDNAKNTVYLQMNSLKPEDTAVYYCAAEPWYSWKTEEDYWGQGTQVTVTS,low polyreactivity
3,QVQLVESGGGLVQAGGSLRLSCAASGIIFTDYAMGWDRQAPGKERELVAAISSGGGSTYYADSVKGRFTISRDNAKNTVYIQLNSQKPEDTAVYYCAAEGYLISGACDYLYDYYWGQGTQVTVSS,high polyreactivity
4,QVQLVESGGGLVQAGGSLRLSCAASGIIFTGYAMGWYRQAPGKERELVAAISDTGGSTYYADSVKGRFTISRDNAKNTVYLQMNSLKPEDTAVYYCAADWWSRYYYWGQGTQVTVSS,high polyreactivity
5,QVQLVESGGGLVQAGGSLRLSCAASGIIFTLYAMGWYRQAPGKERELVATISTGGGTYYADSVKGRFTISRDNAKNTVYLQMNSLKPEDTAVYYCNAVKLLGTRGYGYWGQGTQVTVSS,high polyreactivity
6,QVQLVESGGGLVQAGGSLRLSCAASGIIFTSNTMGWYRQAPGKEREFVASINWNGSSTYADSVKGRFTISRDNAKNTVYLQMNSMKPEDTAVYYCNADYNRNSVQFSLYDYWGQGTQVTVSS,low polyreactivity
7,QVQLVESGGGLVQAGGSLRLSCAASGIIFTTYVMGWYRHAPGTESELVAAISRGGRTYYADSVKGRFTLSRDNAKHTVYLQMNSLKPEDTAVYYCARVAYKGYGEDDYWGQGTQVTVSS,high polyreactivity
8,QVQLVESGGGLVQAGGSLRLSCAASGIIFTYAMGWYRQAPGKERELVAAIDWRGGRTYYADSVKGRFTISRDNAKNTVYLQMNSLKPEDTAVYYCAARLPGGTYYWGQGTQVTVSS,high polyreactivity
9,QVQLVESGGGLVQAGGSLRLSCAASGIIFVKNAMGWYRQAPGKVRELVAAISRSGARTYYADSVKGRFTISRDNAKNTVYLLMNSLKPEDSAVYYCNKVVRYGHTRKIDTESDYWGQGTQVTVSS,high polyreactivity
10,QVQLVESGGGLVQAGGSLRLSCAASGIIFVKYAMGWYRQAPGKERELVAAITSGGSTYYADSVKGRFTISRDNAKNTVYLQMNSLKPDDTAVYYCNADSWFLYYFTINGYWGQGTQVTVSS,high polyreactivity
11,QVQLVESGGGLVQAGGSLRLSCAASGIIFVPYAMGWYRQAPGKERELVAANNSGGNTYYADSVKGRFTISRDNAKNTVYLLIYSLKPEDTAVYYCGAYSKYPVFDYNYWGQGTQVTVSS,high polyreactivity
12,QVQLVESGGGLVQAGGSLRLSCAASGIIFVRNAMGWYRKAPGKERELVAAISRSGGSTYYADSVKWRFTISRDNAKNTVYLQMNSLKPEDTAVYYCAAVLRLSSGYDYWGQGTQVTVSS,high polyreactivity
13,QVQLVESGGGLVQAGGSLRLSCAASGIIFVRYAMGWYIQAPGKERELVAAINSRGNTYYADSVKGRFTISRDNAKNSVYLQMNSLKPEDTAVYYCAKYNSWGQGTQVTVSS,high polyreactivity
14,QVQLVESGGGLVQAGGSLRLSCAASGIIFVSYDMGWYRQAPGKERELVAAINRGGRTYYADSVKGRFTISRDNAKNTVYLQMNSLKAEDTAVYYCAAQFHFRPFSLTYDYWGQGTQLTVSS,high polyreactivity
15,QVQLVESGGGLVQAGGSLRLSCAASGIIFVWYTMGWYRQAPGKERELVAAIDSIGDGTYYADSVKGRFTISRDNAKNTVYLQMNSLKPEDTAVYYCAVDDYYEMDYWGQGTQVTVSS,low polyreactivity
16,QVQLVESGGGLVQAGGSLRLSCAASGIIFVYYTMGWYRQAPGKERELVAAITSGGSTYYADSVKGRFTISRDNAKNTVYLQMNSLKPEDTAVYYCAAVGRPPYAGDRGYWGQGTQVTVSS,high polyreactivity
17,QVQLVESGGGLVQAGGSLRLSCAASGIIFWWYAMGWYRQAPGKERELVAAISGTGGSTYYADSVKGRFTISRDNAKNTVYLQMNSLKPEDTAVYYCAKRASPFWRGYDSWGQGTQVTVSS,low polyreactivity
18,QVQLVESGGGLVQAGGSLRLSCAASGIIFYANVMGLYRQAPGKERELVAGISRNGGRTYYADSVKGRFTISRDNAKNTVYLQMNSLKPADTAVYYCAALGSYTSIFDYWGQGTQVTVSS,high polyreactivity
19,QVQLVESGGGLVQAGGSLRLSCAASGIIFYDYAMGWYRQAPGKERELVAAITSGGSTNYADSVKGRFTISRDNAKNTVYLQMNSLKPEDTAVYYCAATYWSWIPLRFYRGQGTQVTVSS,low polyreactivity
20,QVQLVESGGGLVQAGGSLRLSCAASGIIFYDYAMGWYRQAPGKERELVAAITSNGDNTYYADSVKGRFTISRDNAKNTVYLPMNSLKPEDTAVYYCAVDGSFAADFDNYLEEYGYWGQGTQVTVSS,low polyreactivity
